Laboratory results published in PMC9363494 (2022).

Target: full-length α-synuclein (UniProt P37840 1-140)
Assay: NMR; segment 1 (Seg-1)

Kd: 750 µM
B1: protein disulfide isomerase (enzyme)
chain: not shown
